Data reported in patent US20100175139A1, “SOMATO[…]” (priority 2007, published 2010).

Assays:
Assay type in all cases: cell-based
Smad7 promoter = Smad7 promoter luciferase reporter in NIH-3T3 cells; conditions: TGF-β3 over-expression
Description: (§1) NIH-3T3 cells were transfected with plasmids containing TGF-β responsive elements driving luciferase expression. These cells were then transduced with a retroviral vector expressing TGF-β3. The SBE4 responsive element is specific to TGF-β activation via smad2/3 mediated transcriptional activation. This Smad activation can be further delineated to Smad2 specific transcriptional activation using the ARE responsive element in conjunction with the xenopus Fast-1 transactivator (ARE alone is only Smad2/3 specific). The BMP-specific responsive element activates through Smad1/5/8 activation and should not be responsive to TGF-β3 activity. […] The experiment was conducted as follows:
(§2) NIH-3T3 cells pre-plated at 1×10^6 cells/well and transfected with 10 μg of reporter plasmid by standard Calcium Phosphate precipitation. After 48 hours cells were transduced with either rKat.TGF-β3 or a control rKat.cmvGFP retrovirus. […] After 48 hours luciferase expression was measured in cell lysates. […] Relative luciferase activity was expressed in arbitrary units with respect to total protein measured by standard Bradford assay as by manufacturer's instructions (BioRad, Herts, UK).

[1] = tested on: ARE responsive element (Smad2/3 specific); assay: ARE responsive element luciferase reporter in NIH-3T3 cells; conditions: TGF-β3 over-expression
Description: as §1, §2

[2] = tested on: BMP responsive element BRE (Smad1/5/8); assay: BMP responsive element BRE luciferase reporter in NIH-3T3 cells (negative control); conditions: TGF-β3 over-expression
Description: as §1, §2

[3] = tested on: MDF-CAGA(12)-Luc cells (Smad2/3 specific transcriptional activation); assay: CAGA(12)-Luc reporter in primary murine dermal fibroblasts; conditions: conditioned medium from TGF-β3 over expressing cells vs GFP control
Protocol: A cell line transgenic for a synthetic TGF-β responsive element driving the firefly luciferase gene was generated from primary mouse dermal fibroblasts. The CAGA(12) Smad Binding Element (SBE) was placed upstream of a minimal promoter and will respond to Smad2/3 specific transcriptional activation. Primary murine dermal fibroblasts (MDF) were transduced with a lentiviral vector containing the CAGA(12)-Luc element. These cells were then incubated in conditioned medium from MDFs transduced with a lentivector expressing either TGF-β3 or GFP. The experiment was carried out as follows:
Murine dermal fibroblasts (MDF) were isolated as previously described by DiPersio et al. (DiPersio, C. M., S. Shah, and R. O. Hynes. 1995. alpha 3A beta 1 integrin localizes to focal contacts in response to diverse extracellular matrix proteins. J Cell Sci 108 (Pt 6):2321-36) and expanded to ˜60% confluence and transduced with a lentivector expressing a luciferase reporter gene under the control of either a smad 2/3-specific CAGA(12) promoter. Lentiviral preps were generated as described in Example 1. […] Relative luciferase activity was expressed in arbitrary units with respect to total protein measured by standard Bradford assay as by manufacturer's instructions (BioRad, Herts, UK).

[4] = tested on: SBE4 responsive element (smad2/3 mediated transcriptional activation); assay: SBE4 responsive element luciferase reporter in NIH-3T3 cells; conditions: transgenic TGF-β3 over-expression vs control GFP retrovirus, 48 hours
Description: as §1, §2

[5] = tested on: 293T cells transduced with Lenti/CAGA(12)-Luc; assay: Lenti/CAGA(12)-Luc reporter in 293T cells with or without human αvβ3 integrins; conditions: conditioned medium from cells over-expressing TGF-β3
Description: Human embryonic kidney 293T cells stably expressing the human αvβ3 integrins and control 293T cells were transduced with the Lenti/CAGA(12)-Luc vector to generate two transgenic lines. Again, these cells were subjected to conditioned medium from cells either over-expressing TGF-β3 or control cells. In more detail:
Human 293T cells stably transfected with αv and β3 integrin (293Tab) along with 293T controls were a kind gift from Dr. John Olsen, UNC, USA. 293T cells and 293Tabs were transduced with Lenti-CAGA(12)-Luc and human DFs were tranduced with lentivirus either expressing human TGF-β3iresGFP, mutant TGF-β3iresGFP or a GFP control. Cells were cultured for a further 48 hours prior to trypsinisation and mixing of 293 cells and transduced DFs in a 1:1 ratio. Cells were incubated for a further 24 hours in serum containing medium then incubated for 48 hours in serum depleted medium supplemented with ITS+1 (Sigma-Aldrich). Cells were subsequently either FACS analysed, to assess the ratio of 293T cells to DFs, or lysed for the purpose of quantifying the luciferase expression.

[6] = tested on: ARE responsive element with xenopus Fast-1 transactivator (Smad2 specific); assay: ARE/Fast-1 responsive element luciferase reporter in NIH-3T3 cells; conditions: TGF-β3 over-expression
Description: as §1, §2

B1: TGF-β3: TGF-β3 over-expressed from a retroviral/lentiviral vector; cells exposed by transduction or conditioned medium (protein, UniProt P10600 301-412, looked up)
Transforming growth factor …: ALDTNYCFRNLEENCCVRPLYIDFRQDLGWKWVHEPKGYYANFCSGPCPYLRSADTTHSTVLGLYNTLNPEASASPCCVPQDLEPLTILYYVGRTPKVEQLSNMVVKSCKCS
luciferase response of Smad7 promoter over controls (Smad7 promoter): significant responses over controls
luciferase response of ARE element over controls [1]: significant responses over controls
luciferase response of BRE element over controls [2]: did not show a significant response over controls
luciferase response compared to control [3]: significant luciferase response
upregulation of SBE4 element over controls (luciferase) [4]: ~1000 fold
luciferase output in αvβ3 expressing cell lines compared to control 293T cells [5]: significantly enhanced
luciferase response of ARE/Fast-1 element over controls [6]: significant responses over controls
